Laboratory results as given in paper PMC4848949, “Bacterial Expression and Kinetic Analysis of Carboxylesterase 001D from Helicoverpa armigera” (International Journal of Molecular Sciences, 2016).

substrate: CC(=O)Oc1cccc2ccccc12; assay: purified protein; assay type: biochemical, Helicoverpa armigera; conditions: 0.1 M sodium phosphate pH 7.0, 30 °C

Protein | Km | kcat
Trx/6×His/S-tag/001D (pET32a-001D) (Helicoverpa armigera) (protein, mature enzyme, signal peptide (residues 1-16) removed; N-terminal Trx/6×His/S-tag kept; E. coli BL21(DE3), Ni-NTA; about 79 kDa; full precursor 554 residues) DDEWREVRTAQGPVRGRKHPTADMYAFYNIPYATAPTGEDKFKAPLPGPVWLEPFDAVDERVVCPQAKLPMDIMKNVVEKENCLIANVFVPNTEEKNLSVVVYVHGGAFIIGSGNMIQATHLMKTNDFIMVSFNYRLGIHGFLCLGTEDAPGNAGMKDQVALLRWVQKNIASFGGNPDDVTIVGSSAGSASVDLLMLSKSAEGLFHRVIPESGGNLAAFTVQRDPVEIAKTHAKKLNFNNVDDIYALEEFYKTVPMELLTSDHFFDRTDATFVFGPCVERDTGDGAFLTESPLSILKSGNYRKLPLLYGFAEMEGLMRINVFELWKHKMNEKFSDFLPADLKFDSEEEREEVANKIKRFYFGDKPVGDENVLKYVDYFSDVYFAYSMLWAVKLHAEAGNNQVYLYEYSFVDEDTPLVPHTNVRGADHCTQTMAVYDMKNITHEDESLATPELQKMKKVVREIWHNFIKTGVPVPEGSWLPAWPAAGADRAPHMSLGERLELRGALLPERTRFWDDIYQRYYRDAVPPPTPPPRPRSEL | 7.61(0.63) µM | 2.29(0.08) s^-1
6×His/001D (pE1-001D) (Helicoverpa armigera) (protein, mature enzyme, signal peptide (residues 1-16) removed; N-terminal 6×His tag kept; E. coli BL21(DE3), Ni-NTA; about 63 kDa) DDEWREVRTAQGPVRGRKHPTADMYAFYNIPYATAPTGEDKFKAPLPGPVWLEPFDAVDERVVCPQAKLPMDIMKNVVEKENCLIANVFVPNTEEKNLSVVVYVHGGAFIIGSGNMIQATHLMKTNDFIMVSFNYRLGIHGFLCLGTEDAPGNAGMKDQVALLRWVQKNIASFGGNPDDVTIVGSSAGSASVDLLMLSKSAEGLFHRVIPESGGNLAAFTVQRDPVEIAKTHAKKLNFNNVDDIYALEEFYKTVPMELLTSDHFFDRTDATFVFGPCVERDTGDGAFLTESPLSILKSGNYRKLPLLYGFAEMEGLMRINVFELWKHKMNEKFSDFLPADLKFDSEEEREEVANKIKRFYFGDKPVGDENVLKYVDYFSDVYFAYSMLWAVKLHAEAGNNQVYLYEYSFVDEDTPLVPHTNVRGADHCTQTMAVYDMKNITHEDESLATPELQKMKKVVREIWHNFIKTGVPVPEGSWLPAWPAAGADRAPHMSLGERLELRGALLPERTRFWDDIYQRYYRDAVPPPTPPPRPRSEL | 19.72(6.69) µM | 0.35(0.05) s^-1
6×His/S-tag/001D (pET30a-001D) (Helicoverpa armigera) (protein, mature enzyme, signal peptide (residues 1-16) removed; N-terminal 6×His/S-tag kept; E. coli BL21(DE3), Ni-NTA; about 67 kDa) DDEWREVRTAQGPVRGRKHPTADMYAFYNIPYATAPTGEDKFKAPLPGPVWLEPFDAVDERVVCPQAKLPMDIMKNVVEKENCLIANVFVPNTEEKNLSVVVYVHGGAFIIGSGNMIQATHLMKTNDFIMVSFNYRLGIHGFLCLGTEDAPGNAGMKDQVALLRWVQKNIASFGGNPDDVTIVGSSAGSASVDLLMLSKSAEGLFHRVIPESGGNLAAFTVQRDPVEIAKTHAKKLNFNNVDDIYALEEFYKTVPMELLTSDHFFDRTDATFVFGPCVERDTGDGAFLTESPLSILKSGNYRKLPLLYGFAEMEGLMRINVFELWKHKMNEKFSDFLPADLKFDSEEEREEVANKIKRFYFGDKPVGDENVLKYVDYFSDVYFAYSMLWAVKLHAEAGNNQVYLYEYSFVDEDTPLVPHTNVRGADHCTQTMAVYDMKNITHEDESLATPELQKMKKVVREIWHNFIKTGVPVPEGSWLPAWPAAGADRAPHMSLGERLELRGALLPERTRFWDDIYQRYYRDAVPPPTPPPRPRSEL | 12.51(2.14) µM | 0.60(0.06) s^-1
